B1: 7A4F10 fully human TIM-3 antibody (human IgG4, kappa) (antibody, V domains shown)
VH: EVQLLESGGGLVQPGGSLRLSCAASGFTFRTHLISWVRQAPGKGLEWVAAITGSGGSTYYADSVKGRFIISRDNSKNTLFLQMNSLRAEDTAVYYCAKDGGSGSYDDFWGQGTLVTVSS
VL: ETVLTQSPVTLSLSPGERATLSCRASQSVGSYLAWYQQKPGQAPRLLIYDASNRATGIPARFSGSGSGTDFTLTISSLEPEDFAVYYCQQRSNWPPTFGQGTKVEIK
B2: 215A8F2 fully human TIM-3 antibody (human IgG4, kappa) (antibody, V domains shown)
VH: QVQLQQWGAGLLKPSETLSLTCTVYGGSFSGYYWNWIRQPPGKGLEWLGEINHSGSTNYNPSLKRRVTISVDTSKNQFSLKLSSVTAADTAVYYCARVYYYGPFDFWGQGTLVTVSS
VL: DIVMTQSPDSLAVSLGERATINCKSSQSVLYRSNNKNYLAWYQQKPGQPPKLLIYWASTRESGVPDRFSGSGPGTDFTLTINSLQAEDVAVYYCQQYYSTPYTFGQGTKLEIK
B3: 57F4E5 fully human TIM-3 antibody (human IgG4, kappa) (antibody, V domains shown)
VH: EVQLVESGGGLVQPGGSLRLSCAASGFTFSSYWMSWVRQAPGKGLEWVANIKQDGSEKYYVDSVKGRFTISRDSAKNSLYLQMNSLRAEDTAMYFCARDSNFFDYWGQGTLVTVSS
VL: ETVMTQSPATLSVSPGERATLSCRASQSVSSNLAWYQRKPGQAPRLLIYFSSTRATGIPARFSGSGSGTEFTLTISSLQSEDFAVYYCQQYNNWPLTFGGGTKVEIK
B4: 134H3G6 fully human TIM-3 antibody (human IgG4, kappa) (antibody, V domains shown)
VH: EVQLVESGGGLVQPGGSLRLSCAASGFTFSNSWMTWVRQAPGKGLEWVANIKQAGTEKYYVDSVKGRFTISRDNAKNSLYLQMNSLRAEDTAVYYCNSGSNYFDYWGQGTLVTVSS
VL: B3 VL with T2I, S26R, S28N, V29F, S30Y, R38Q, F50G, S51A
B5: 7A4F10 (TIM-3 antibody purified from hybridoma, chimeric antibody of Example 2) (antibody, V domains shown)
VH: B1 VH
VL: B1 VL
notes: From hybridoma of Harbour H2L2 transgenic mice: human variable regions, rat constant regions
B6: 215A8F2 (TIM-3 antibody purified from hybridoma, chimeric antibody of Example 2) (antibody, V domains shown)
VH: B2 VH
VL: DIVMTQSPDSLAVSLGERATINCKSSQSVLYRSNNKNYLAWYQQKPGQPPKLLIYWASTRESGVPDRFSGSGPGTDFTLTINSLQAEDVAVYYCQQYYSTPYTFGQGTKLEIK
notes: as for B5
B7: 39E5H1 (TIM-3 antibody purified from hybridoma, chimeric antibody of Example 2) (antibody, V domains shown)
VH: EVQLVESGGGLVQPGGSLRLSCAASGFTFSSYWMSWVRQAPGKGLEWVANIKRGGSERYYVDSVKGRFTISGDNAKNSVYLQMNSLRAEDTAVYYCARGSNWFDPWGQGTLVTVSS
VL: B3 VL with T10I, S30Y, R38Q, P40L, F50D, S51A, L96I, G100Q, K103R, V104L
notes: as for B5
B8: 57F4E5 (TIM-3 antibody purified from hybridoma, chimeric antibody of Example 2) (antibody, V domains shown)
VH: B3 VH
VL: B3 VL
notes: as for B5
B9: 134H3G6 (TIM-3 antibody purified from hybridoma, chimeric antibody of Example 2) (antibody, V domains shown)
VH: B4 VH
VL: B3 VL with T2I, S26R, S28N, V29F, S30Y, R38Q, F50G, S51A
notes: as for B5
B10: 18D2H2 (TIM-3 antibody purified from hybridoma, chimeric antibody of Example 2) (antibody, V domains shown)
VH: EVQLVESGGDLVQPGGSLRLSCAASGFTFSTYWMTWVRQAPGRGLEWVANIKQDGSAKYYVDSVKGRFTLSRDDAKNSLYLQMNSLRAEDTAVYYCARGSNWFDYWGQGTLVTVSS
VL: B3 VL with S26N, S28N, S30Y, R38Q, F50D, S51A, I58F
notes: as for B5
B11: 34B6D8 (TIM-3 antibody purified from hybridoma, chimeric antibody of Example 2) (antibody, V domains shown)
VH: B7 VH with S31T, S35T, G44R, R53Q, S56G, E57D, R58K, G72T, V79L
VL: EIVMTQSPATLSMSPGERATLSCRASQSVYDNLAWYQQKPGQAPRLLIYGASTRATGIPARFSGSGSGTEFTLTISSLQSEDFALYYCQQYTHWPITFGQGTRLEIK
notes: as for B5

Positions count from the first letter of the chain named.

Among the data in patent publication US20220033501A1 (SHANGHAI PHARMAEXPLORER, published 2022) are Mean fluorescence intensity and OD450 values, retold here.

The first experiment concerns the target T1, human TIM-3 on CHOK1 stable cell line (CHOK1-hTIM-3) (human, UniProt Q8TDQ0 22-301).
T1 sequence: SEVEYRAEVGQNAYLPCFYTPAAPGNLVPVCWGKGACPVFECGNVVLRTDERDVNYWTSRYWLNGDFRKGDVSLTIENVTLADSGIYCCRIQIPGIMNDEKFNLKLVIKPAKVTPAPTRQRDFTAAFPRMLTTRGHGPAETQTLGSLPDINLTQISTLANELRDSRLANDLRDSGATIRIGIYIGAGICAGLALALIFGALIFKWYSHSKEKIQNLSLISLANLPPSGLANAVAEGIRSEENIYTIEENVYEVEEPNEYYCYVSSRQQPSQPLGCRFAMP
As to the kind of experiment: FACS, CHOK1-hTIM-3 cells, 40 nM antibody.
B1 gave a Mean fluorescence intensity of 313.
Same read-out and setting: with B2 the figure was 283.
In turn, B3 yielded a Mean fluorescence intensity of 147.
Take B4: the Mean fluorescence intensity came to 218.

A further experiment addresses T2, monkey TIM-3 extracellular domain protein with hFc tag (cTIM-3-hFc) (monkey).
T2 construct: not shown: human IgG Fc fragment (hFc) of the pCpC vector
T2 chain: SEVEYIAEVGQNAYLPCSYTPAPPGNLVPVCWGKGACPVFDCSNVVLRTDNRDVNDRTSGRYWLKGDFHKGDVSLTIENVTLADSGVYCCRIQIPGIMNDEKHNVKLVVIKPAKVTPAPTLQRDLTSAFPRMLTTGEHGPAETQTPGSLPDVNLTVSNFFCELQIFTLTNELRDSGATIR
Description: ELISA, coated monkey TIM-3 ECD protein, 0.6667 nM antibody. On the technique in general: In an ELISA, binding on a coated surface is turned into a signal by an enzyme label.
In turn, B1 showed an OD450 of 2.46.
The molecule B2 returned an OD450 of 3.05.
The molecule B3 yielded an OD450 of 3.15.
The same measure, in the same setting: then B4, with 3.1.

In another experiment the target is T3, murine TIM-3 protein with hFc tag (mTIM-3-hFc protein) (mouse; human, UniProt Q8VIM0 29-191).
T3 construct: Made in HEK293 cells; also called mouse TIM-3 extracellular domain protein; not shown: human IgG Fc fragment (hFc) of the pCpC vector
T3 chain: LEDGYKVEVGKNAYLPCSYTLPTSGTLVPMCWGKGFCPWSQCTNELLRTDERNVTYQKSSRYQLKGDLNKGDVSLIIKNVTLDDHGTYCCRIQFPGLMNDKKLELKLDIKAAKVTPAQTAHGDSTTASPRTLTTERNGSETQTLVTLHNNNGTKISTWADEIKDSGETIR
As to the kind of experiment: ELISA, coated mTIM-3-hFc; antibody 0.0007 nM. An excerpt:
The amino acid sequence 22-200 of the extracellular domain of the human TIM-3 protein described in the step of Example 1 (as shown in SEQ ID NO. 71 in the sequence listing) was cloned into a pCpC vector having a human IgG Fc fragment (hFc), and transfected into HEK293 cells. The cell culture medium was collected, and purified to obtain the human TIM-3 protein with hFc tag (herein referred to as hTIM-3-hFc protein). The amino acid sequence 22-201 of the extracellular domain of the monkey TIM-3 protein (as shown in SEQ ID NO. 72 in the sequence listing) was cloned into a pCpC vector having a human IgG Fc fragment (hFc), and transfected into HEK293 cells. The cell culture medium was collected, and purified to obtain the monkey TIM-3 protein with hFc tag (herein referred to as cTIM-3-hFc protein). […] The cell culture medium was collected, and purified to obtain the murine TIM-3 protein with hFc tag (herein referred to as mTIM-3-hFc protein). Purified human, monkey, and mouse TIM-3 extracellular domain proteins (hTIM-3-hFc, cTIM-3-hFc, and mTIM-3-hFc) were diluted with PBS to a final concentration of 1.0 μg/ml and then added to a 96-well ELISA plate with 100 μl per well. The plate was sealed with plastic film and incubated overnight at 4° C. The plate was washed 4 times with the plate washing solution (PBS+0.01% Tween20) on the next day, and added with the blocking solution (PBS+0.01% Tween20+1% BSA) and sealed at room temperature for 1-2 hours. The blocking solution was poured out. 50-100 μl of the antibody sample to be tested was added to each well. The plate was incubated at 37° C. for 1-2 hours, and washed 2-3 times with plate washing solution (PBS+0. 01% Tween20). HRP (horseradish peroxidase) labeled secondary antibody was added. The plate was incubated at 37° C. for 1-2 hours, and washed 2-3 times with plate washing solution (PBS+0. 01% Tween20). […] of TMB substrate was added to each well. After incubated at room temperature for 15-30 minutes, the plate was added with […] stop solution (1.0N HCl) to each well. An ELISA plate reader (TiterMax 384plus, Molecular Device) was used to read the A450 nm value.
On to B5, for which the OD450 came out at 0.64.
As to B6, the OD450 was determined as 0.67.
Turning to B7, the OD450 worked out at 0.63.
Molecule B8 had an OD450 of 0.67.
Take B9: the OD450 was 0.62.
For the molecule B10, the OD450 came to 0.64.
Molecule B11 had an OD450 of 0.65.

In another experiment the target is T4, monkey TIM-3 on CHOK1 stable cell line (CHOK1-cTIM-3) (monkey).
T4 chain: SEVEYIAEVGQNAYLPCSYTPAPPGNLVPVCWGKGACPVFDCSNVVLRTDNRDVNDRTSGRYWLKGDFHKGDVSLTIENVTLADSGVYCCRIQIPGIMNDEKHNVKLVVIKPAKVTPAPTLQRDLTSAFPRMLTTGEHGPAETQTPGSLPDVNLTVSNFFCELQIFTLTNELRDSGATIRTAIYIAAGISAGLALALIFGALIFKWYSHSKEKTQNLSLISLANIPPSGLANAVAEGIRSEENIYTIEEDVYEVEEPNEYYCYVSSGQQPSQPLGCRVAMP
As to the kind of experiment: FACS, CHOK1-cTIM-3 cells, 40 nM antibody.
B1: the Mean fluorescence intensity came to 336.
The molecule B2 registered a Mean fluorescence intensity of 366.
B3 registered a Mean fluorescence intensity of 269.
On the same count and under the same terms, then B4, with 376.

In the next experiment the target is T5, murine TIM-3 extracellular domain protein with hFc tag (mTIM-3-hFc) (mouse, UniProt Q8VIM0 29-191).
T5 construct: also called mouse TIM-3 extracellular domain protein; not shown: human IgG Fc fragment (hFc) of the pCpC vector
T5 chain: T3 chain
Description: ELISA, coated mouse TIM-3 ECD protein, 0.0067 nM antibody.
In the case of B1, the OD450 worked out at 0.23.
As to B2, the OD450 turned out to be 0.22.
As for B3, the OD450 was 0.23.
The same measure, in the same setting: then B4, with 0.22.

Another experiment concerns the target T1, human TIM-3 on CHOK1 stable cell line …. Description: FACS, CHOK1-hTIM-3 cells, 1.6 nM antibody. A general note: Flow cytometry measures light scatter and fluorescence of single cells or particles in a stream.
B1 came in with a Mean fluorescence intensity of 282.
In the case of B2, the Mean fluorescence intensity was found to be 235.
Molecule B3 yielded a Mean fluorescence intensity of 156.
As to B4, the Mean fluorescence intensity came out at 207.

The target in another experiment is T5, murine TIM-3 extracellular domain …. Description: ELISA, coated mouse TIM-3 ECD protein, 0.0667 nM antibody.
B1 registered an OD450 of 0.22.
Consider B2, for which the OD450 amounted to 0.31.
For B3, the OD450 worked out at 0.33.
Same read-out and setting: then B4, with 0.21.

Another experiment has as its target T2, monkey TIM-3 extracellular domain …. Description: ELISA, coated monkey TIM-3 ECD protein, 0.0001 nM antibody.
B1 returned an OD450 of 0.13.
In turn, B2 had an OD450 of 0.13.
The same measure, in the same setting: with B3 the figure was 0.17.
Same read-out and setting: then B4, with 0.14.

For another experiment, the target named is T4, monkey TIM-3 on CHOK1 stable cell line …. Description: FACS, CHOK1-cTIM-3 cells, 0.32 nM antibody.
Molecule B1 had a Mean fluorescence intensity of 52.7.
The same measure, in the same setting: with B2 the figure was 92.5; with B3, 80.6; with B4, 134.

The target is the same in the next experiment. Description: FACS, CHOK1-cTIM-3 cells, 8 nM antibody.
For the molecule B1, the Mean fluorescence intensity is 325.
With B2, the Mean fluorescence intensity is 362.
As to B3, the Mean fluorescence intensity is 259.
B4 registered a Mean fluorescence intensity of 401.
